Changes are numbered by the printed parent chain.
B1: Round 2 CTLA4 A-B11-5 (ligand)
chain: ITPKSATKRVKETVMLSCDYSTSTEELTSLRIYWQKDSKMVLAILPGKVQVWPEYKNRTITDMNDNPRIVILALRLSDSGTYTCVIQKPDLKGAYKLEHLTSVRLMIRADFPVPTINDLGNPSPNIRRLICSTSGGFPRPHLYWLENGEELNATNTTLSQDPETKLYMISSELDFNMTSNHSFLCLVKYGDLTVSQTFYWQESKPTPSANQHLTWTIIIPVSAFGISVIIAVILTCLTCRNAAIRRQRRENEVEMQSCSQSP
B2: Round 2 CTLA4 A-F6-9 (ligand)
chain: B1 chain with A6V
B3: Round 2 CTLA4 A-G8-1 (ligand)
chain: B1 chain with A6V, S21N, R75P
B4: Round 1 (R1) CTLA4BP-5 (ligand)
chain: VIHVTKEVKEVATLSCGHNVSVEELAQTRIHWQKEKKMVLTMMSGDMNIWPEYKNRTIFDITNNLSIVILALRPSDEGTYECVVLKYEKDAFKREHLAEVTLSVKADFPTPSISDFEIPPSNIRRIICSTSGGFPEPHLSWLENGEELNAINTTVSQDPGTELYTVSSKLDFNMTTNHSFMCLIKYGHLRVNQTFNWNTPKQEHFPDNLLPSWAITLISVNGIFVICCLTYCFAPRCRERRRNERLRRESVRPV
notes: also called R1-5
B5: Round 2 CTLA4BP 2x1-f10 (ligand)
chain: B4 chain with T101M, S114T, H138R, S140A, L142M, N144D, T165A, F224S, R252C
B6: Round 2 CTLA4BP 2x1-c4 (ligand)
chain: B4 chain with S15P, T101M, S114T, S140F, T165A, S179N
B7: Round 1 CTLA4BP-13 (ligand)
chain: VIHVTKEVKEVATLSCGHNVSVEELAQTRIYWQKEKKMVLTMMSGDMNIWPEYKNRTIFDITNNLSIVILALRPSDEGTYECVVLKYEKDAFKREHLAEVTLSVKADFPTPSISDFEIPTSNIRRIICSTSGGFPEPHLFGLENGEEINAINTTASQDPETELYTVSSKLDFNMTPNRSFVCLIKYGHLRVNQTFNWNTPKQEHFPDNLLPSWAITLISANGIFVICCLTYCFAPRCRERKSNERLRRESVRPV
notes: also called R1-13; R1 CTLA-4BP-13
B8: Round 1 CTLA4BP-27 (ligand)
chain: B4 chain with H18L, H31Y, T101M, G160E, T176A, M181V, R245T
notes: also called R1-27; R1 CTLA-4BP-27
B9: Round 2 CTLA4BP 2x1-b12 (ligand)
chain: VIHMTKEVKEVATLSCGHNVSVEELAQTRIYWQKEKKMVLTMMSGDMNIWPEYKNRTIFDITNNLSIVILALRPSDEGTYECVALKYEKDAFKQEHLAEVTLSVKADFPTPSISDFEIPPSNIRRIICSTSGGFPEPRLAWMEDGEELNAINTTVSQDPETELYTVSSKLDFNMTANHSFMCLIKYGHLRVNQTFNWNTPKQEHFPDNLLPSWAITLISVNGIFVICCLTYCFAPRCRERRRNERLRRESVCPV
B10: Round 1 CTLA4BP-11 (ligand)
chain: B4 chain with V4M, H31Y, T101M, S114T, S140F, G160E, T165A, P200T, Y231H, R252H
notes: also called R1-11; R1 CTLA-4BP-11

What follows are binders tested against T1, Soluble CTLA-4-Ig (extracellular domain of human CTLA-4 fused to the Fc portion of human IgG1) (human, UniProt P16410 36-161, FITC-conjugated in the FACS binding assays) (assay: competitive FACS on transfected cells, FITC-sCTLA-4-Ig with biotin-sCD28-Ig; grade 0-2 of CTLA-4/CD28 ratio vs WT hB7-1).
T1 construct: extracellular domain; bought from R&D Systems; also called sCTLA-4-Ig; CTLA-4-Ig Fc; not shown: Fc portion of human IgG1
T1 sequence (P16410 36-161): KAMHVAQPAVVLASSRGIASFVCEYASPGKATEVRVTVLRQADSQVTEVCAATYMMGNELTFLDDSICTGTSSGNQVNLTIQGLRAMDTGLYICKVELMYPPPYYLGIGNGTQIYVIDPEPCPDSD

B1 and B2 are the same in “Binding Score” value: 1 for the first, 1 for the second.

Going from B3 to B4, the “Binding Score” value rises from 1 to 2.

B5 and B6 are the same in “Binding Score” value: 1 for the first, 1 for the second.

B7 and B8 are the same in “Binding Score” value: 1 for the first, 1 for the second.

B9 and B10 are the same in “Binding Score” value: 1 for the first, 1 for the second.
